One molecule from patent US20050221395A1, “Methods and products based on oligomerization of stress proteins” (priority 2002, published 2005) can be followed below.

One data set can be described thus: NECA ligand binding. The procedure:
Dimer content also correlates with the ability of gp96 to bind NECA. Using the gp96-peptide complex isolated from CT-26 tumors, aliquots of each preparation were also analyzed for NECA ligand binding.

A short description of data set [1]: % dimer by size exclusion chromatography (SEC). Format: physicochemical. The procedure: Gp96-peptide complex was isolated from murine CT-26 tumors. Separate aliquots of each preparation were either maintained at 4° C. (untreated) or subjected to mild heat treatment to denature the complex.
HPLC size exclusion chromatography is currently being optimized and has been run under a few different formats. The column was either a TSK 3000SWXL (Toso Haus) or a Superose 6 (Amersham Pharmacia) equilibrated in 10 mM phosphate buffer, pH 7.1, with 300 mM NaCl. All experiments were run at room temperature on a Waters Alliance or HP 1100 HPLC systems at a flow rate of 0.5 mL/min. The following results for human tumor derived gp96 (reported in Table 3, below) were all analyzed on the Superose 6 column. % dimer values represent the area percent of the dimer peak relative to total peak area.
For orientation: In gel filtration, larger molecules generally elute earlier.

For data set [2], the system named is murine antigen presenting cells. Description: nitric oxide (NO) secretion by antigen presenting cells. Format: cell-based. The procedure:
(§1) Further experiments indiate that dimer content correlates with the ability of gp96 to stimulate chemokine/nitric oxide release by antigen presenting cells. Gp96 purified from the Meth-A murine fibrosarcoma tumors, subjected to both thermal and pH perturbations. This material was analyzed by SEC and NECA binding for its ability to induce murine antigen presenting cells to secrete MCP-1 and nitric oxide. […] NECA ligand binding and both MCP-1 and NO production decreased concomitantly with the loss of dimer. A similar trend was observed upon exposure of gp96 to pH 3, but not pH 7 or 9.

Data set [3] has the same test system. Nature of the data set: MCP-1 secretion by antigen presenting cells. It counts as cell-based. The procedure:
as §1

B1: gp96: Gp96 purified from the Meth-A murine fibrosarcoma tumors, subjected to thermal and pH perturbations (FIG. 2) (protein, UniProt P08113 22-802, looked up)
Endoplasmin: DDEVDVDGTVEEDLGKSREGSRTDDEVVQREEEAIQLDGLNASQIRELREKSEKFAFQAEVNRMMKLIINSLYKNKEIFLRELISNASDALDKIRLISLTDENALAGNEELTVKIKCDKEKNLLHVTDTGVGMTREELVKNLGTIAKSGTSEFLNKMTEAQEDGQSTSELIGQFGVGFYSAFLVADKVIVTSKHNNDTQHIWESDSNEFSVIADPRGNTLGRGTTITLVLKEEASDYLELDTIKNLVRKYSQFINFPIYVWSSKTETVEEPLEEDEAAKEEKEESDDEAAVEEEEEEKKPKTKKVEKTVWDWELMNDIKPIWQRPSKEVEEDEYKAFYKSFSKESDDPMAYIHFTAEGEVTFKSILFVPTSAPRGLFDEYGSKKSDYIKLYVRRVFITDDFHDMMPKYLNFVKGVVDSDDLPLNVSRETLQQHKLLKVIRKKLVRKTLDMIKKIADEKYNDTFWKEFGTNIKLGVIEDHSNRTRLAKLLRFQSSHHSTDITSLDQYVERMKEKQDKIYFMAGSSRKEAESSPFVERLLKKGYEVIYLTEPVDEYCIQALPEFDGKRFQNVAKEGVKFDESEKTKESREATEKEFEPLLNWMKDKALKDKIEKAVVSQRLTESPCALVASQYGWSGNMERIMKAQAYQTGKDISTNYYASQKKTFEINPRHPLIRDMLRRIKEDEDDKTVMDLAVVLFETATLRSGYLLPDTKAYGDRIERMLRLSLNIDPEAQVEEEPEEEPEDTSEDAEDSEQDEGEEMDAGTEEEEEETEKESTEKDEL
modifications: Meth-A tumor derived
For the molecule B1, the NECA binding ability result is reported as “Neither sample of gp96 could bind NECA” in “NECA ligand binding” (heated to 50° C. and 60° C., at 30 minutes (FIG. 2B)); “markedly reduced” in the data set “NECA ligand binding” (pH 3.0 (FIG. 2F)). Also, the dimer level entry in data set [1] (heated at 50° C. and 60° C., at 30 minutes (FIG. 2A)) is given as “Neither sample contained dimers”. In addition, the dimer levels entry in data set [1] (pH 3.0 (FIG. 2E)) was “markedly reduced”. Also, in data set [2] (heated to 50° C. and 60° C. for 30 minutes (FIG. 2D)), the “ability to stimulate murine APC secretion of NO” value was “rapid drop”. Moreover, in data set [2] (pH 3.0 (FIG. 2H)), the “NO secretion by murine APCs” value is reported as “markedly reduced”. For the same molecule, in data set [3] (heated to 50° C. and 60° C. for 30 minutes (FIG. 2C)), the “ability to stimulate murine APC secretion of MCP-1” value is “rapid drop”. In data set [3] (pH 3.0 (FIG. 2G)), the “MCP-1 secretion by murine APCs” value is “markedly reduced”.
